Results on 7 variants are retold here after the supplement of paper PMC12338614.

± gives the uncertainty stated by the source.

B1: library; numbered along this chain (parent)
chain: MEVVDPQQLGMFTEGELMSVGMDTFIHRIDSTEVIYQPRRKRAKLIGKYLMGDLLGEGSYGKVKEVLDSETLCRRAVKILKKKKLRRIPNGEANVKKEIQLLRRLRHKNVIQLVDVLYNEEKQKMYMVMEYCVCGMQEMLDSVPEKRFPVCQAHGYFCQLIDGLEYLHSQGIVHKDIKPGNLLLTTGGTLKISDLGVAEALHPFAADDTCRTSQGSPAFQPPEIANGLDTFSGFKVDIWSAGVTLYNITTGLYPFEGDNIYKLFENIGKGSYAIPGDCGPPLSDLLKGMLEYEPAKRFSIRQIRQHSWFRKKHPPAEAPVPIPPSPDTKDRWRSMTVVPYLEDLHGADEDEDLFDIEDDIIYTQDFTVPGQVPEEEASHNGQRRGLPKAVCMNGTEAAQLSTKSRAEGRAPNPARKACSASSKIRRLSACKQQ

The variants in this series derive from B1. Put plainly: STK11 functional score (HeLa growth suppression), rescaled enrichment; synonymous median = 1, nonsense median = 0 (normalised score). The note with it: with HeLa; variant type: missense. Summed up:
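In HeLa, Bxb1 integrated POPCode codon-randomised libraries of codon-optimised STK11 at an AAVS1 landing pad; three regions were each transfected three times. Integrants, marked as BFP-negative and mCherry-positive, were FACS-sorted 4–5 days after electroporation and expanded for about two weeks before tiled gDNA amplicons were sequenced on NextSeq (~2 million reads per tile). Each functional score is a post/pre-selection log ratio corrected to wild type, rescaled to the synonymous and nonsense medians, and merged across codons and replicate transfections, with error estimated by bootstrapping.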
Consider MEVVDPQQLGMFTEGELMSVGMDTFIHRIDSTEVIYQPRRKRAKLIGKYLMGDLLGEGSYGKVKEVLDSETLCRRAVKILKKKKLRRIPNGEANVKKEIQLLRRLRHKNVIQLVDVLYNEEKQKMYMVMEYCVCGMQEMLDSVPEKRFPVCQAHGYFCQLIDGLEYLHSQGIVHKDIKPGNLLLTTGGTLKISDLGVAEALHPFAADDTCRTSQGSPAFQPPEIANGLDTFSGFKVDIWSAGVTLYNITTGLYPFEGDNIYKLFENIGKGSYAIPGDCGPPLSDLLKGMLEYEPAKRFSIRQIRQHSWFRKKHPPAEAPVPIPRSPDTKDRWRSMTVVPYLEDLHGADEDEDLFDIEDDIIYTQDFTVPGQVPEEEASHNGQRRGLPKAVCMNGTEAAQLSTKSRAEGRAPNPARKACSASSKIRRLSACKQQ [P324R], for which the STK11 functional score was found to be 1.17 ± 0.15. Under MEVVDPQQLGMFTEGELMSVGMDTFIHRIDSTEVIYQPRRKRAKLIGKYLMGDLLGEGSYGKVKEVLDSETLCRRAVKILKKKKLRRIPNGEANVKKEIQLLRRLRHKNVIQLVDVLYNEEKQKMYMVMEYCVCGMQEMLDSVPEKRFPVCQAHGYFCQLIDGLEYLHSQGIVHKDIKPGNLLLTTGGTLKISDLGVAEALHPFAADDTCRTSQGSPAFQPPEIANGLDTFSGFKVDIWSAGVTLYNITTGLYPFEGDNIYKLFENIGKGSYAIPGDCGPPLSDLLKGMLEYEPAKRFSIRQIRQHSWFRKKHPPAEAPVPIPSSPDTKDRWRSMTVVPYLEDLHGADEDEDLFDIEDDIIYTQDFTVPGQVPEEEASHNGQRRGLPKAVCMNGTEAAQLSTKSRAEGRAPNPARKACSASSKIRRLSACKQQ [P324S] stands 1.45 ± 0.11.

As for MEVVDPQQLGMFTEGELMSVGMDTFIHRIDSTEVIYQPRRKRAKLIGKYLMGDLLGEGSYGKVKEVLDSETLCRRAVKILKKKKLRRIPNGEANVKKEIQLLRRLRHKNVIQLVDVLYNEEKQKMYMVMEYCVCGMQEMLDSVPEKRFPVCQAHGYFCQLIDGLEYLHSQGIVHKDIKPGNLLLTTGGTLKISDLGVAEALHPFAADDTCRTSQGSPAFQPPEIANGLDTFSGFKVDIWSAGVTLYNITTGLYPFEGDNIYKLFENIGKGSYAIPGDCGPPLSDLLKGMLEYEPAKRFSIRQIRQHSWFRKKHPPAEAPVPIPTSPDTKDRWRSMTVVPYLEDLHGADEDEDLFDIEDDIIYTQDFTVPGQVPEEEASHNGQRRGLPKAVCMNGTEAAQLSTKSRAEGRAPNPARKACSASSKIRRLSACKQQ [P324T], the STK11 functional score turned out to be 1.15 ± 0.23.

For MEVVDPQQLGMFTEGELMSVGMDTFIHRIDSTEVIYQPRRKRAKLIGKYLMGDLLGEGSYGKVKEVLDSETLCRRAVKILKKKKLRRIPNGEANVKKEIQLLRRLRHKNVIQLVDVLYNEEKQKMYMVMEYCVCGMQEMLDSVPEKRFPVCQAHGYFCQLIDGLEYLHSQGIVHKDIKPGNLLLTTGGTLKISDLGVAEALHPFAADDTCRTSQGSPAFQPPEIANGLDTFSGFKVDIWSAGVTLYNITTGLYPFEGDNIYKLFENIGKGSYAIPGDCGPPLSDLLKGMLEYEPAKRFSIRQIRQHSWFRKKHPPAEAPVPIPVSPDTKDRWRSMTVVPYLEDLHGADEDEDLFDIEDDIIYTQDFTVPGQVPEEEASHNGQRRGLPKAVCMNGTEAAQLSTKSRAEGRAPNPARKACSASSKIRRLSACKQQ [P324V], the STK11 functional score was 1.58 ± 0.14. To MEVVDPQQLGMFTEGELMSVGMDTFIHRIDSTEVIYQPRRKRAKLIGKYLMGDLLGEGSYGKVKEVLDSETLCRRAVKILKKKKLRRIPNGEANVKKEIQLLRRLRHKNVIQLVDVLYNEEKQKMYMVMEYCVCGMQEMLDSVPEKRFPVCQAHGYFCQLIDGLEYLHSQGIVHKDIKPGNLLLTTGGTLKISDLGVAEALHPFAADDTCRTSQGSPAFQPPEIANGLDTFSGFKVDIWSAGVTLYNITTGLYPFEGDNIYKLFENIGKGSYAIPGDCGPPLSDLLKGMLEYEPAKRFSIRQIRQHSWFRKKHPPAEAPVPIPWSPDTKDRWRSMTVVPYLEDLHGADEDEDLFDIEDDIIYTQDFTVPGQVPEEEASHNGQRRGLPKAVCMNGTEAAQLSTKSRAEGRAPNPARKACSASSKIRRLSACKQQ [P324W] belongs 0.731 ± 0.099; to MEVVDPQQLGMFTEGELMSVGMDTFIHRIDSTEVIYQPRRKRAKLIGKYLMGDLLGEGSYGKVKEVLDSETLCRRAVKILKKKKLRRIPNGEANVKKEIQLLRRLRHKNVIQLVDVLYNEEKQKMYMVMEYCVCGMQEMLDSVPEKRFPVCQAHGYFCQLIDGLEYLHSQGIVHKDIKPGNLLLTTGGTLKISDLGVAEALHPFAADDTCRTSQGSPAFQPPEIANGLDTFSGFKVDIWSAGVTLYNITTGLYPFEGDNIYKLFENIGKGSYAIPGDCGPPLSDLLKGMLEYEPAKRFSIRQIRQHSWFRKKHPPAEAPVPIPPDPDTKDRWRSMTVVPYLEDLHGADEDEDLFDIEDDIIYTQDFTVPGQVPEEEASHNGQRRGLPKAVCMNGTEAAQLSTKSRAEGRAPNPARKACSASSKIRRLSACKQQ [S325D], 1.09 ± 0.29; to MEVVDPQQLGMFTEGELMSVGMDTFIHRIDSTEVIYQPRRKRAKLIGKYLMGDLLGEGSYGKVKEVLDSETLCRRAVKILKKKKLRRIPNGEANVKKEIQLLRRLRHKNVIQLVDVLYNEEKQKMYMVMEYCVCGMQEMLDSVPEKRFPVCQAHGYFCQLIDGLEYLHSQGIVHKDIKPGNLLLTTGGTLKISDLGVAEALHPFAADDTCRTSQGSPAFQPPEIANGLDTFSGFKVDIWSAGVTLYNITTGLYPFEGDNIYKLFENIGKGSYAIPGDCGPPLSDLLKGMLEYEPAKRFSIRQIRQHSWFRKKHPPAEAPVPIPPAPDTKDRWRSMTVVPYLEDLHGADEDEDLFDIEDDIIYTQDFTVPGQVPEEEASHNGQRRGLPKAVCMNGTEAAQLSTKSRAEGRAPNPARKACSASSKIRRLSACKQQ [S325A], 1.05 ± 0.5.
